Reference: patent US20230235074A1 (University of Texas, published 2023)

Key:
[1] = biological target: BST2 as expressed endogenously on the surface of human cell lines (B-LCL, MM1, U266, MCF-10A, MCF7, MDA-MB-231, T47D) (human) (UniProt Q10589); assay: flow cytometry on MM1 cells, mAb 1 ug/ml
[2] = biological target: BST2 as expressed endogenously on the surface of human cell lines (B-LCL, MM1, U266, MCF-10A, MCF7, MDA-MB-231, T47D) (human) (UniProt Q10589); assay: flow cytometry on U266 cells, mAb 1 ug/ml
[3] = biological target: BST2 as expressed endogenously on the surface of human cell lines (B-LCL, MM1, U266, MCF-10A, MCF7, MDA-MB-231, T47D) (human) (UniProt Q10589); assay: flow cytometry on MCF7 cells, mAb 1 ug/ml
[4] = biological target: BST2 as expressed endogenously on the surface of human cell lines (B-LCL, MM1, U266, MCF-10A, MCF7, MDA-MB-231, T47D) (human) (UniProt Q10589); assay: flow cytometry on T47D cells, mAb 1 ug/ml
[5] = biological target: BST2 as expressed endogenously on the surface of human cell lines (B-LCL, MM1, U266, MCF-10A, MCF7, MDA-MB-231, T47D) (human) (UniProt Q10589); assay: flow cytometry on B-LCL cells, mAb 1 ug/ml
[6] = biological target: BST2 as expressed endogenously on the surface of human cell lines (B-LCL, MM1, U266, MCF-10A, MCF7, MDA-MB-231, T47D) (human) (UniProt Q10589); assay: flow cytometry on MCF-10A cells, mAb 1 ug/ml
[7] = biological target: BST2 as expressed endogenously on the surface of human cell lines (B-LCL, MM1, U266, MCF-10A, MCF7, MDA-MB-231, T47D) (human) (UniProt Q10589); assay: flow cytometry on MDA-MB-231 cells, mAb 1 ug/ml
[8] = biological target: BST2 as expressed endogenously on the surface of human cell lines (B-LCL, MM1, U266, MCF-10A, MCF7, MDA-MB-231, T47D) (human) (UniProt Q10589); assay: flow cytometry on MM1 cells, mAb not preincubated
[9] = biological target: T1, BST2 long isoform (BST2-D, full length BST2, 180 amino acids) expressed on HEK293 transfectants (human, UniProt Q10589 1-161); assay: flow cytometry, hybridoma supernatant on HEK293-long cells
T1 construct: also called HEK293-long; HEK293 WT-BST2
Protocol: For flow cytometry assays, cells were detached using 0.05% trypsin-EDTA, counted, washed and resuspend with FACS Buffer (PBS, 2% FBS, 2 mM EDTA). 2×10⁵ cells in 100 ul/well were placed in U-bottom 96-well plate and centrifuged (1000 RPM/3 min/4° C.). The buffer was discarded and 100 ul of the previously collected supernatants with selected monoclonal antibodies were added to the wells and incubated on ice for 30 minutes. After incubation, the plate was washed three times with FACS buffer and 50 ul of diluted (1/250) secondary antibody (Donkey anti-mouse Allophycocyanin (APC) conjugated) were added to the wells and incubated on ice for 20 minutes protected from light. The final wash was repeated 4 times, and the samples were transferred and analyzed at the South Campus Flow Cytometry & Cell Sorting Core Laboratory at MD Anderson Cancer Center. FACS data were analyzed with FlowJo™ Software—for Windows (Version 10.6.1. Ashland, Oreg.: Becton, Dickinson and Company; 2020).

[10] = biological target: BST2 as expressed endogenously on the surface of human cell lines (B-LCL, MM1, U266, MCF-10A, MCF7, MDA-MB-231, T47D) (human) (UniProt Q10589); assay: flow cytometry on MM1 cells, mAb preincubated 10 min with Spartan protein (5 ug/ml)
[11] = biological target: T2, Spartan protein (SprT-like domain-containing protein) (human, UniProt Q9H040 1-489, limits assumed); assay: flow cytometry of MM1 cells after preincubation of the mAb with Spartan protein
T2 construct: Irrelevant protein control in the preincubation assay; also called Spartan irrelevant protein; irrelevant protein
T2 sequence (looked up): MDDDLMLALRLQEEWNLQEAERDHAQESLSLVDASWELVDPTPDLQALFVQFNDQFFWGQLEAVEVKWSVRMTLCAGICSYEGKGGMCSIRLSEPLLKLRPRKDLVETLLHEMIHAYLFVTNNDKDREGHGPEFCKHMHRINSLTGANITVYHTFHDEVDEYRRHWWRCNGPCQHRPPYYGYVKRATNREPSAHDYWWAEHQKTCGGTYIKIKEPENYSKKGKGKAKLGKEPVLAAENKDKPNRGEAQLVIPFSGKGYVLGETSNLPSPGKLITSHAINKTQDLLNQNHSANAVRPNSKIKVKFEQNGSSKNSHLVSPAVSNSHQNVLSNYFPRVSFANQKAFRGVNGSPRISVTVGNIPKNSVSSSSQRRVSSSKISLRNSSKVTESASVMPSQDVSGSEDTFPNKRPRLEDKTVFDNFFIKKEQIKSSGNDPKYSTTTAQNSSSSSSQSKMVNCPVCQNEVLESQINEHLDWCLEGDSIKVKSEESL
Protocol: A specificity assay was performed and analyzed through flow cytometry staining of MM1, a multiple myeloma cell line. In this assay, changes in the binding of the LA5 mAb to the BST2 receptor expressed on MM1 cell lines were assessed after:
As part of the characterization of the selected antibody candidate, the inventors analyzed the specificity of the new antibody by flow cytometry staining of a cell line, constitutively expressing BST2, competing the antibody binding to the cells with a recombinant BST2 protein and an irrelevant target. Staining of MM1, a multiple myeloma cell line, was assessed at different conditions to test the binding specificity of the generated monoclonal antibodies. Anti-BST2-long (clone LA5) was pre-incubated with BST2 protein for 10 minutes, before being transferred to U-bottom wells plate containing MM1 cells. […] Alternatively, Spartan protein, or SprT-like domain-containing protein, a human DNA-binding metalloprotease with 489 amino acid length and involved in the response to DNA replication errors (34, 35) was used as an irrelevant protein.

[12] = biological target: BST2 as expressed endogenously on the surface of human cell lines (B-LCL, MM1, U266, MCF-10A, MCF7, MDA-MB-231, T47D) (human) (UniProt Q10589); assay: flow cytometry on MM1 cells, mAb preincubated 10 min with recombinant BST2 protein (5 ug/ml) as competitor
[13] = biological target: T3, Recombinant human BST2 protein (Catalog number 13370-H07H, Sino Biological) (human, UniProt Q10589 49-161); assay: BLI (Octet RED384), mAb 5 ug/ml captured on anti-mouse IgG Fc (AMC) biosensors, BST2 protein 15.625-1000 nM, 1:1 model, global fit
T3 construct: Bought soluble protein; also called full length recombinant BST2 protein; full-length BST2 protein
T3 sequence (looked up): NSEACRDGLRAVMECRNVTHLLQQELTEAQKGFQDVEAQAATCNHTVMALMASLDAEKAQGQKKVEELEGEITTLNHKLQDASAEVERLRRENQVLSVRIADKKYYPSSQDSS
Protocol: Binding kinetics of the anti-BST2-long mAb clone LA5 was assessed, using Octet RED384 platform system. Briefly, antibodies were captured, as described under methods, by specific biosensors that bind the Fc region of the antibody. Based on prior experiments and certain standard operations procedures, 5 ug/ml was selected as the fixed concentration for the mAb. Various concentrations of the full length recombinant BST2 protein were used to assess the antibody affinity. The interaction was analyzed with a 1:1 binding model, involving both the association and the dissociation steps.

B1: anti-BST2-long monoclonal antibody clone LA5 (antibody, mouse IgG1, V domains shown)
VH: EVQLQQSGAELVRSGASVNLSCTASGFNIKDYYIHWVKQRPERGLEWIGWIDPENGDTEYAPEFQGKASMTADTSSNTAYLQLSSLTSEDTAVYYCKRGDWGQGTLVTVSA
VL: DVLMTQTPLSLPVSLGDQASISCRSSQSIVHSNGNTYLEWFLQKPGQSPKLLIYKVSNRFSGVPDRFSGSGSGTDFTLKISRVEAEDLGVYYCFQGSHAPFTFGSGTELEIK
notes: Mouse hybridoma antibody; Used as hybridoma supernatant in the screening assays and as Protein A purified mAb afterwards; also called LA5 mAb; MAb LA5
percentage of cell staining [1]: 98.6% | percentage of cell staining [2]: 96.1% | percentage of cell staining [3]: 0.43% | percentage of cell staining [4]: 2.6% | percentage of cell staining [5]: 99.3% | percentage of cell staining [6]: 2.4% | percentage of cell staining [7]: 1% | staining percentage of the MM1 cells [8]: 85.2% | percentage of cells stained [9]: 58.3% | staining percentage of the MM1 cells [10]: 83.9% | binding result [11]: no binding (tested: 5 ug/ml) | staining percentage of the MM1 cells [12]: 5.01% | Kd [13]: 4.61 nM | koff [13]: 0.000921 s⁻¹ | kon [13]: 200000 M⁻¹ s⁻¹
